Data taken from US20100203630A1.

Target: envelope of the SF162 strain of pseudovirus (HIV, SF162) (UniProt P19550)
Experiment: cell-based or functional assay

purified b12-IgG1 (antibody)
neutralizing 50% inhibitory concentration (IC50), pseudovirus neutralization assay: 0.026 µg/mL
